Earlier results in patent US20030219387A1, “Local delivery of agents for disruption and inhibition of bacterial biofilm for treatment of periodontal disease” (priority 2000, published 2003).

Tested on: binding of cells
Settings: iron-saturated form

B1: Lactoferrin: iron-binding salivary protein (protein, UniProt P02788 20-710, looked up)
Lactotransferrin: GRRRSVQWCAVSQPEATKCFQWQRNMRKVRGPPVSCIKRDSPIQCIQAIAENRADAVTLDGGFIYEAGLAPYKLRPVAAEVYGTERQPRTHYYAVAVVKKGGSFQLNELQGLKSCHTGLRRTAGWNVPIGTLRPFLNWTGPPEPIEAAVARFFSASCVPGADKGQFPNLCRLCAGTGENKCAFSSQEPYFSYSGAFKCLRDGAGDVAFIRESTVFEDLSDEAERDEYELLCPDNTRKPVDKFKDCHLARVPSHAVVARSVNGKEDAIWNLLRQAQEKFGKDKSPKFQLFGSPSGQKDLLFKDSAIGFSRVPPRIDSGLYLGSGYFTAIQNLRKSEEEVAARRARVVWCAVGEQELRKCNQWSGLSEGSVTCSSASTTEDCIALVLKGEADAMSLDGGYVYTAGKCGLVPVLAENYKSQQSSDPDPNCVDRPVEGYLAVAVVRRSDTSLTWNSVKGKKSCHTAVDRTAGWNIPMGLLFNQTGSCKFDEYFSQSCAPGSDPRSNLCALCIGDEQGENKCVPNSNERYYGYTGAFRCLAENAGDVAFVKDVTVLQNTDGNNNEAWAKDLKLADFALLCLDGKRKPVTEARSCHLAMAPNHAVVSRMDKVERLKQVLLHQQAKFGRNGSDCPDKFCLFQSETKNLLFNDNTECLARLHGKTTYEKYLGPQYVAGITNLKKCSTSPLLEACEFLRK
modifications: iron saturated
In the case of B1, the binding of cells is given as “reduce binding of cells”.
